Assay results as given in patent US20260242419A1, “A CYCLIC PEPTIDE FOR TRAPPING INTERLEUKIN-1 BETA” (Merck Sharp & Dohme LLC, priority 2023, published 2026).
Starred links: 1 amine or outer side, 2 acyl side, 3 side chain; linkers in the order of their positions; H or OH if unused. Non-standard residues stand in square brackets, D forms with d. 3AzaPhe4AcPip = (2S)-3-[6-(4-acetylpiperazin-1-yl)-3-pyridyl]-2-amino-propanoic acid, CC(=O)N1CCN(c2ccc(C[C@H](N[*:1])C(=O)[*:2])cn2)CC1; dProc4Bn = (2R,4R)-4-benzylpyrrolidine-2-carboxylic acid, O=C([C@H]1C[C@@H](Cc2ccccc2)CN1[*:1])[*:2]; Phe(4-(5-CO2H-2-pyrimidyl)) = N[C@@H](Cc1ccc(-c2ncc(C(=O)O)cn2)cc1)C(=O)O; Phe(4-(4-Ac-piperazinyl)) = CC(=O)N1CCN(c2ccc(C[C@H](N)C(=O)O)cc2)CC1; Trp(βS-Me,4-F) = C[C@@H](c1c[nH]c2cccc(F)c12)[C@H](N)C(=O)O; Bip(4'-COOH) = N[C@@H](Cc1ccc(-c2ccc(C(=O)O)cc2)cc1)C(=O)O; dPro(4R-Bzl(4-F)) = O=C(O)[C@H]1C[C@@H](Cc2ccc(F)cc2)CN1; Ala(pyrimidin-5-yl) = N[C@@H](Cc1cncnc1)C(=O)O; Phe(4-COOH) = N[C@@H](Cc1ccc(C(=O)O)cc1)C(=O)O; Pro(cis-4-F) = O=C(O)[C@@H]1C[C@H](F)CN1; 2Pal = N[C@@H](Cc1ccccn1)C(=O)O; 3Pal = N[C@@H](Cc1cccnc1)C(=O)O; 4Pal = N[C@@H](Cc1ccncc1)C(=O)O; Dab = NCC[C@H](N)C(=O)O; Aib = CC(C)(N)C(=O)O

B1: SEQ ID NO: 31 (peptide)
peptide: cyclo([Bip(4'-COOH)][4Pal][Phe(4-COOH)]G[Pro(cis-4-F)][Trp(βS-Me,4-F)][Aib]EW[Aib][Ala(pyrimidin-5-yl)]Q[Dab]G[dProc4Bn])
SMILES: C[C@@H](c1c[nH]c2cccc(F)c12)[C@@H]1NC(=O)[C@@H]2C[C@H](F)CN2C(=O)CNC(=O)[C@H](Cc2ccc(C(=O)O)cc2)NC(=O)[C@H](Cc2ccncc2)NC(=O)[C@H](Cc2ccc(-c3ccc(C(=O)O)cc3)cc2)NC(=O)[C@H]2C[C@@H](Cc3ccccc3)CN2C(=O)CNC(=O)[C@H](CCN)NC(=O)[C@H](CCC(N)=O)NC(=O)[C@H](Cc2cncnc2)NC(=O)C(C)(C)NC(=O)[C@H](Cc2c[nH]c3ccccc23)NC(=O)[C@H](CCC(=O)O)NC(=O)C(C)(C)NC1=O
B2: SEQ ID NO: 32 (peptide)
peptide: cyclo([Bip(4'-COOH)][4Pal][Phe(4-COOH)]G[Pro(cis-4-F)][Trp(βS-Me,4-F)][Aib]EW[Aib]RQSG[dPro(4R-Bzl(4-F))])
SMILES: C[C@@H](c1c[nH]c2cccc(F)c12)[C@@H]1NC(=O)[C@@H]2C[C@H](F)CN2C(=O)CNC(=O)[C@H](Cc2ccc(C(=O)O)cc2)NC(=O)[C@H](Cc2ccncc2)NC(=O)[C@H](Cc2ccc(-c3ccc(C(=O)O)cc3)cc2)NC(=O)[C@H]2C[C@@H](Cc3ccc(F)cc3)CN2C(=O)CNC(=O)[C@H](CO)NC(=O)[C@H](CCC(N)=O)NC(=O)[C@H](CCCNC(=N)N)NC(=O)C(C)(C)NC(=O)[C@H](Cc2c[nH]c3ccccc23)NC(=O)[C@H](CCC(=O)O)NC(=O)C(C)(C)NC1=O
B3: SEQ ID NO: 33 (peptide)
peptide: cyclo([Bip(4'-COOH)][4Pal][Phe(4-COOH)]G[Pro(cis-4-F)][Trp(βS-Me,4-F)][Aib]EW[Aib]RQ[Dab]G[dPro(4R-Bzl(4-F))])
SMILES: C[C@@H](c1c[nH]c2cccc(F)c12)[C@@H]1NC(=O)[C@@H]2C[C@H](F)CN2C(=O)CNC(=O)[C@H](Cc2ccc(C(=O)O)cc2)NC(=O)[C@H](Cc2ccncc2)NC(=O)[C@H](Cc2ccc(-c3ccc(C(=O)O)cc3)cc2)NC(=O)[C@H]2C[C@@H](Cc3ccc(F)cc3)CN2C(=O)CNC(=O)[C@H](CCN)NC(=O)[C@H](CCC(N)=O)NC(=O)[C@H](CCCNC(=N)N)NC(=O)C(C)(C)NC(=O)[C@H](Cc2c[nH]c3ccccc23)NC(=O)[C@H](CCC(=O)O)NC(=O)C(C)(C)NC1=O
B4: SEQ ID NO: 34 (peptide)
peptide: cyclo([Bip(4'-COOH)][4Pal][Phe(4-COOH)]G[Pro(cis-4-F)][Trp(βS-Me,4-F)][Aib]EW[Aib][3Pal]QSG[dPro(4R-Bzl(4-F))])
SMILES: C[C@@H](c1c[nH]c2cccc(F)c12)[C@@H]1NC(=O)[C@@H]2C[C@H](F)CN2C(=O)CNC(=O)[C@H](Cc2ccc(C(=O)O)cc2)NC(=O)[C@H](Cc2ccncc2)NC(=O)[C@H](Cc2ccc(-c3ccc(C(=O)O)cc3)cc2)NC(=O)[C@H]2C[C@@H](Cc3ccc(F)cc3)CN2C(=O)CNC(=O)[C@H](CO)NC(=O)[C@H](CCC(N)=O)NC(=O)[C@H](Cc2cccnc2)NC(=O)C(C)(C)NC(=O)[C@H](Cc2c[nH]c3ccccc23)NC(=O)[C@H](CCC(=O)O)NC(=O)C(C)(C)NC1=O
B5: SEQ ID NO: 35 (peptide)
peptide: cyclo([Bip(4'-COOH)][4Pal][Phe(4-COOH)]G[Pro(cis-4-F)][Trp(βS-Me,4-F)][Aib]EW[Aib]FQRG[dPro(4R-Bzl(4-F))])
SMILES: C[C@@H](c1c[nH]c2cccc(F)c12)[C@@H]1NC(=O)[C@@H]2C[C@H](F)CN2C(=O)CNC(=O)[C@H](Cc2ccc(C(=O)O)cc2)NC(=O)[C@H](Cc2ccncc2)NC(=O)[C@H](Cc2ccc(-c3ccc(C(=O)O)cc3)cc2)NC(=O)[C@H]2C[C@@H](Cc3ccc(F)cc3)CN2C(=O)CNC(=O)[C@H](CCCNC(=N)N)NC(=O)[C@H](CCC(N)=O)NC(=O)[C@H](Cc2ccccc2)NC(=O)C(C)(C)NC(=O)[C@H](Cc2c[nH]c3ccccc23)NC(=O)[C@H](CCC(=O)O)NC(=O)C(C)(C)NC1=O
B6: SEQ ID NO: 36 (peptide)
peptide: cyclo([Bip(4'-COOH)][4Pal][Phe(4-COOH)]G[Pro(cis-4-F)][Trp(βS-Me,4-F)][Aib]EW[Aib][2Pal]QSG[dPro(4R-Bzl(4-F))])
SMILES: C[C@@H](c1c[nH]c2cccc(F)c12)[C@@H]1NC(=O)[C@@H]2C[C@H](F)CN2C(=O)CNC(=O)[C@H](Cc2ccc(C(=O)O)cc2)NC(=O)[C@H](Cc2ccncc2)NC(=O)[C@H](Cc2ccc(-c3ccc(C(=O)O)cc3)cc2)NC(=O)[C@H]2C[C@@H](Cc3ccc(F)cc3)CN2C(=O)CNC(=O)[C@H](CO)NC(=O)[C@H](CCC(N)=O)NC(=O)[C@H](Cc2ccccn2)NC(=O)C(C)(C)NC(=O)[C@H](Cc2c[nH]c3ccccc23)NC(=O)[C@H](CCC(=O)O)NC(=O)C(C)(C)NC1=O
B7: SEQ ID NO: 37 (peptide)
peptide: cyclo([Phe(4-(4-Ac-piperazinyl))][4Pal][Phe(4-COOH)]G[Pro(cis-4-F)][Trp(βS-Me,4-F)][Aib]EW[Aib][Ala(pyrimidin-5-yl)]Q[Dab]G[dPro(4R-Bzl(4-F))])
SMILES: CC(=O)N1CCN(c2ccc(C[C@@H]3NC(=O)[C@H]4C[C@@H](Cc5ccc(F)cc5)CN4C(=O)CNC(=O)[C@H](CCN)NC(=O)[C@H](CCC(N)=O)NC(=O)[C@H](Cc4cncnc4)NC(=O)C(C)(C)NC(=O)[C@H](Cc4c[nH]c5ccccc45)NC(=O)[C@H](CCC(=O)O)NC(=O)C(C)(C)NC(=O)[C@H]([C@@H](C)c4c[nH]c5cccc(F)c45)NC(=O)[C@@H]4C[C@H](F)CN4C(=O)CNC(=O)[C@H](Cc4ccc(C(=O)O)cc4)NC(=O)[C@H](Cc4ccncc4)NC3=O)cc2)CC1
B8: SEQ ID NO: 38 (peptide)
peptide: cyclo([Phe(4-(5-CO2H-2-pyrimidyl))][4Pal][Phe(4-COOH)]G[Pro(cis-4-F)][Trp(βS-Me,4-F)][Aib]EW[Aib][Ala(pyrimidin-5-yl)]Q[Dab]G[dPro(4R-Bzl(4-F))])
SMILES: C[C@@H](c1c[nH]c2cccc(F)c12)[C@@H]1NC(=O)[C@@H]2C[C@H](F)CN2C(=O)CNC(=O)[C@H](Cc2ccc(C(=O)O)cc2)NC(=O)[C@H](Cc2ccncc2)NC(=O)[C@H](Cc2ccc(-c3ncc(C(=O)O)cn3)cc2)NC(=O)[C@H]2C[C@@H](Cc3ccc(F)cc3)CN2C(=O)CNC(=O)[C@H](CCN)NC(=O)[C@H](CCC(N)=O)NC(=O)[C@H](Cc2cncnc2)NC(=O)C(C)(C)NC(=O)[C@H](Cc2c[nH]c3ccccc23)NC(=O)[C@H](CCC(=O)O)NC(=O)C(C)(C)NC1=O
B9: SEQ ID NO: 39 (peptide)
peptide: cyclo([3AzaPhe4AcPip][4Pal][Phe(4-COOH)]G[Pro(cis-4-F)][Trp(βS-Me,4-F)][Aib]EW[Aib][Ala(pyrimidin-5-yl)]Q[Dab]G[dPro(4R-Bzl(4-F))])
SMILES: CC(=O)N1CCN(c2ccc(C[C@@H]3NC(=O)[C@H]4C[C@@H](Cc5ccc(F)cc5)CN4C(=O)CNC(=O)[C@H](CCN)NC(=O)[C@H](CCC(N)=O)NC(=O)[C@H](Cc4cncnc4)NC(=O)C(C)(C)NC(=O)[C@H](Cc4c[nH]c5ccccc45)NC(=O)[C@H](CCC(=O)O)NC(=O)C(C)(C)NC(=O)[C@H]([C@@H](C)c4c[nH]c5cccc(F)c45)NC(=O)[C@@H]4C[C@H](F)CN4C(=O)CNC(=O)[C@H](Cc4ccc(C(=O)O)cc4)NC(=O)[C@H](Cc4ccncc4)NC3=O)cn2)CC1

These binders were tested against Recombinant human IL-1β (BioLegend 579404) (human, UniProt P01584 117-269) (assay: cell-based or functional assay).
With B1 the “MRC5 IC50” value was 0.024 nM. With B2 the “MRC5 IC50” value was 0.049 nM. In the case of B3, the “MRC5 IC50” value is reported as 0.033 nM. In the case of B4, the “MRC5 IC50” value is reported as 0.032 nM. With B5 the “MRC5 IC50” value was 0.049 nM. With B6 the “MRC5 IC50” value was 0.054 nM. For B7, the “MRC5 IC50” value was 0.033 nM. In the case of B8, the “MRC5 IC50” value is reported as 0.041 nM. With B9 the “MRC5 IC50” value was 0.063 nM.
